Data on two molecules can be found in patent US20020187514A1 (priority 1999, published 2002).

For one test, the target named is Complement C5a (Homo sapiens, UniProt P21730). As to the kind of experiment: Complement C5a (Human); [125I]BH-rC5a. The format is binding. The conditions noted are these: reference compound, QA/QC; read-out: Ref Kj.
In test [1] the target is Epidermal Growth Factor, EGF. As to the kind of experiment: Epidermal Growth Factor, EGF; [125I]EGF. To be noted: reference compound, QA/QC; read-out: Ref Kj. The format is binding.

Chain of Complement C5a (P21730 whole entry): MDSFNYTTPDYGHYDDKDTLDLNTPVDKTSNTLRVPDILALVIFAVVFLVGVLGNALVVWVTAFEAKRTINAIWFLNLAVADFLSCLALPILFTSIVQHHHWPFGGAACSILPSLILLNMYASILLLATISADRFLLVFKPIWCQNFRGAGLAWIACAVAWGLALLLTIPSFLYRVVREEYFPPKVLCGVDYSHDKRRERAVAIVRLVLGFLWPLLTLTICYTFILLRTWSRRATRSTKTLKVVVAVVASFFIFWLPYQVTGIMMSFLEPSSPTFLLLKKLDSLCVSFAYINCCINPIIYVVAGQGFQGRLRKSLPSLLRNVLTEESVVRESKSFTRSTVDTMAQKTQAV

B1: rC5a, Human: reference compound, Complement C5a assay (protein, UniProt P01031 678-751, looked up)
C5a anaphylatoxin: TLQKKIEEIAAKYKHSVVKKCCYDGACVNNDETCEQRAARISLGPRCIKAFTECCVVASQLRANISHKDMQLGR
modifications: C5a anaphylatoxin
On to B1, for which the Ki with Complement C5a was 0.619 nM.

B2: EGF: reference compound, Epidermal Growth Factor assay (protein, UniProt P01133 23-1207, looked up)
Pro-epidermal growth factor: PQHWSCPEGTLAGNGNSTCVGPAPFLIFSHGNSIFRIDTEGTNYEQLVVDAGVSVIMDFHYNEKRIYWVDLERQLLQRVFLNGSRQERVCNIEKNVSGMAINWINEEVIWSNQQEGIITVTDMKGNNSHILLSALKYPANVAVDPVERFIFWSSEVAGSLYRADLDGVGVKALLETSEKITAVSLDVLDKRLFWIQYNREGSNSLICSCDYDGGSVHISKHPTQHNLFAMSLFGDRIFYSTWKMKTIWIANKHTGKDMVRINLHSSFVPLGELKVVHPLAQPKAEDDTWEPEQKLCKLRKGNCSSTVCGQDLQSHLCMCAEGYALSRDRKYCEDVNECAFWNHGCTLGCKNTPGSYYCTCPVGFVLLPDGKRCHQLVSCPRNVSECSHDCVLTSEGPLCFCPEGSVLERDGKTCSGCSSPDNGGCSQLCVPLSPVSWECDCFPGYDLQLDEKSCAASGPQPFLLFANSQDIRHMHFDGTDYGTLLSQQMGMVYALDHDPVENKIYFAHTALKWIERANMDGSQRERLIEEGVDVPEGLAVDWIGRRFYWTDRGKSLIGRSDLNGKRSKIITKENISQPRGIAVHPMAKRLFWTDTGINPRIESSSLQGLGRLVIASSDLIWPSGITIDFLTDKLYWCDAKQSVIEMANLDGSKRRRLTQNDVGHPFAVAVFEDYVWFSDWAMPSVMRVNKRTGKDRVRLQGSMLKPSSLVVVHPLAKPGADPCLYQNGGCEHICKKRLGTAWCSCREGFMKASDGKTCLALDGHQLLAGGEVDLKNQVTPLDILSKTRVSEDNITESQHMLVAEIMVSDQDDCAPVGCSMYARCISEGEDATCQCLKGFAGDGKLCSDIDECEMGVPVCPPASSKCINTEGGYVCRCSEGYQGDGIHCLDIDECQLGEHSCGENASCTNTEGGYTCMCAGRLSEPGLICPDSTPPPHLREDDHHYSVRNSDSECPLSHDGYCLHDGVCMYIEALDKYACNCVVGYIGERCQYRDLKWWELRHAGHGQQQKVIVVAVCVVVLVMLLLLSLWGAHYYRTQKLLSKNPKNPYEESSRDVRSRRPADTEDGMSSCPQPWFVVIKEHQDLKNGGQPVAGEDGQAADGSMQPTSWRQEPQLCGMGTEQGCWIPVSSDKGSCPQVMERSFHMPSYGTQTLEGGVEKPHSLLSANPLWQQRALDPPHQMELTQ
modifications: Pro-epidermal growth factor
With B2, the Ki in test [1] was 3.2 nM.
